# In patent US20150344570A1 (published 2015):
# Where a chain is given by its changes, count along the chain named.
# T1: FcgRIIaH (human, UniProt P12318 34-217)
# T1 construct: extracellular domain; also called FcγRIIa H; FcgRIIa type H; not shown: His tag attached to the C terminus
# T1 sequence (looked up): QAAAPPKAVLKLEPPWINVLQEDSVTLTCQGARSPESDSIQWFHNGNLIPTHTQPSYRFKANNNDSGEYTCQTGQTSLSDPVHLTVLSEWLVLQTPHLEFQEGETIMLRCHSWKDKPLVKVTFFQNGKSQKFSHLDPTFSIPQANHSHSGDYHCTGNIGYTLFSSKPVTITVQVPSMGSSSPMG
# T2: FcgRIIb (human, UniProt P31994 43-217)
# T2 construct: extracellular domain; also called FcγRIIb; 2b; not shown: His tag attached to the C terminus
# T2 sequence (looked up): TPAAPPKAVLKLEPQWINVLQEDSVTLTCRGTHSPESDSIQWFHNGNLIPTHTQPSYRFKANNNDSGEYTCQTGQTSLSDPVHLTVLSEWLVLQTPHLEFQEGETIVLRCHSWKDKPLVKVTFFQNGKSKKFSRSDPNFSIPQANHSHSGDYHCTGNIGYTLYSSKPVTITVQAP
# T3: FcgRIIaR (human, UniProt P12318 34-217)
# T3 construct: extracellular domain; also called FcγRIIa R; FcgRIIa type R; not shown: His tag attached to the C terminus
# T3 sequence (looked up): T1 sequence (looked up) with H134R
# B1: H240-Kn211/H240-Hl076/L73-k0 (antibody, human IgG1, kappa)
# heavy 1: QDQLVQSGAEVKKPGASVKVSCKASGFNIKDTYIQWVRQAPGQGLEWMGRIDPLRKQTKYREKFEGRVTITADTSTNTAYMELSSLRSEDTAVYYCVRSGREFDYWGQGTLVTVSSASTKGPSVFPLAPSSKSTSGGTAALGCLVKDYFPEPVTVSWNSGALTSGVHTFPAVLQSSGLYSLSSVVTVPSSSLGTQTYICNVNHKPSNTKVDKKVEPKSCDKTHTCPPCPAPEMQWGPMVFLFPPKPKDTLMISRTPEVTCVVVDVSDEEPEVKFNWYVDGVEVHNAKTKPREEQYNATYRVVSVLTVLHQDWLNGKEYKCKVSNKALPAPIEKTISKAKGQPREPQVCTLPPSRDELTKNQVSLWCLVKGFYPSDIAVEWESNGQPENNYKTTPPVLDSDGSFFLYSKLTVDKSRWQQGNVFSCSVMHEALHNHYTQKSLSLSP
# heavy 2: QDQLVQSGAEVKKPGASVKVSCKASGFNIKDTYIQWVRQAPGQGLEWMGRIDPLRKQTKYREKFEGRVTITADTSTNTAYMELSSLRSEDTAVYYCVRSGREFDYWGQGTLVTVSSASTKGPSVFPLAPSSKSTSGGTAALGCLVKDYFPEPVTVSWNSGALTSGVHTFPAVLQSSGLYSLSSVVTVPSSSLGTQTYICNVNHKPSNTKVDKKVEPKSCDKTHTCPPCPAPELLGGPSVFLFPPKPKDTLMISRTPEVTCVVVDVSHEEPEVKFNWYVDGVEVHNAKTKPREEQYNSTYRVVSVLTVLHQDWLNGKEYKCKVSNDALPMPIEETISKAKGQPREPQVYTLPPSRCELTKNQVSLSCAVKGFYPSDIAVEWESNGQPENNYKTTPPVLDSDGSFFLVSKLTVDKSRWQQGNVFSCSVMHEALHNHYTQKSLSLSP
# light: DIQMTQSPSSLSASVGDRVTITCRASQDIHKYIAWYQQKPGQAPRLLIQYTSTLQPGVPSRFSGSGSGTDYTFTISSLQPEDIATYYCLQYEQLRTFGGGTKVEIKRTVAAPSVFIFPPSDEQLKSGTASVVCLLNNFYPREAKVQWKVDNALQSGNSQESVTEQDSKDSTYSLSSTLTLSKADYEKHKVYACEVTHQGLSSPVTKSFNRGEC
# notes: Anti-epiregulin heterodimerized IgG1, knobs-into-holes
# B2: H240-Kn223/H240-Hl068/L73-k0 (antibody, human IgG1, kappa)
# heavy 1: B1 heavy 1 with M233G, Q234Y, E269D, A326D
# heavy 2: B1 heavy 2 with M329K
# light: B1 light
# notes: as for B1
# B3: H240-Kn213/H240-Hl076/L73-k0 (antibody, human IgG1, kappa)
# heavy 1: B1 heavy 1 with M233A
# heavy 2: B1 heavy 2
# light: B1 light
# notes: as for B1
# B4: H240-Kn222/H240-Hl068/L73-k0 (antibody, human IgG1, kappa)
# heavy 1: B1 heavy 1 with M233A, Q234Y, E269D, A326D
# heavy 2: B1 heavy 2 with M329K
# light: B1 light
# notes: as for B1
# B5: H240-Kn220/H240-Hl068/L73-k0 (antibody, human IgG1, kappa)
# heavy 1: B1 heavy 1 with Q234Y, E269D, A326D
# heavy 2: B1 heavy 2 with M329K
# light: B1 light
# notes: as for B1
# B6: H240-Kn214/H240-Hl076/L73-k0 (antibody, human IgG1, kappa)
# heavy 1: B1 heavy 1 with M233G
# heavy 2: B1 heavy 2
# light: B1 light
# notes: as for B1
# B7: H240-Kn212/H240-Hl076/L73-k0 (antibody, human IgG1, kappa)
# heavy 1: B1 heavy 1 with M233T
# heavy 2: B1 heavy 2
# light: B1 light
# notes: as for B1
# B8: H240-Kn221/H240-Hl068/L73-k0 (antibody, human IgG1, kappa)
# heavy 1: B1 heavy 1 with M233T, Q234Y, E269D, A326D
# heavy 2: B1 heavy 2 with M329K
# light: B1 light
# notes: as for B1
# B9: H240-Kn218/H240-Hl068/L73-k0 (antibody, human IgG1, kappa)
# heavy 1: B1 heavy 1 with M233Q, Q234Y, E269D, A326D
# heavy 2: B1 heavy 2 with M329K
# light: B1 light
# notes: as for B1
# B10: H240-Kn224/H240-Hl068/L73-k0 (antibody, human IgG1, kappa)
# heavy 1: B1 heavy 1 with M233H, Q234Y, E269D, A326D
# heavy 2: B1 heavy 2 with M329K
# light: B1 light
# notes: as for B1
# B11: H240-Kn217/H240-Hl068/L73-k0 (antibody, human IgG1, kappa)
# heavy 1: B1 heavy 1 with M233D, Q234Y, E269D, A326D
# heavy 2: B1 heavy 2 with M329K
# light: B1 light
# notes: as for B1
# B12: H240-Kn216/H240-Hl068/L73-k0 (antibody, human IgG1, kappa)
# heavy 1: B1 heavy 1 with M233V, Q234Y, E269D, A326D
# heavy 2: B1 heavy 2 with M329K
# light: B1 light
# notes: as for B1
# B13: H240-Kn219/H240-Hl068/L73-k0 (antibody, human IgG1, kappa)
# heavy 1: B1 heavy 1 with M233I, Q234Y, E269D, A326D
# heavy 2: B1 heavy 2 with M329K
# light: B1 light
# notes: as for B1
# B14: H240-Kn215/H240-Hl076/L73-k0 (antibody, human IgG1, kappa)
# heavy 1: B1 heavy 1 with M233H
# heavy 2: B1 heavy 2
# light: B1 light
# notes: as for B1
# Biological target: T4, FcgRIIIaV (human, UniProt P08637 17-208)
# T4 construct: extracellular domain; also called FcγRIIIa V; 3aV; not shown: His tag attached to the C terminus
# Experiment: SPR (Biacore); KD of H240-Kn033/H240-Hl033/L73-k0 divided by KD of this variant
# T4 sequence (P08637 17-208 F176V limits assumed): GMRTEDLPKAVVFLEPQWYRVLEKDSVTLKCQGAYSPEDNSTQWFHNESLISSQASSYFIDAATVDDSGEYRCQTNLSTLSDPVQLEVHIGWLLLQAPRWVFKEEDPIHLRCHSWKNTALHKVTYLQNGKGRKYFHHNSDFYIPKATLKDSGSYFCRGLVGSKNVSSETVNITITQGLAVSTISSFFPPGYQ
row,Binder,fold 3aV [fold]
1,B1,92.3
2,B2,84.2
3,B3,65.8
4,B4,88.9
5,B5,96
6,B6,60
7,B7,82.8
8,B8,102
9,B9,96
10,B10,90.6
11,B11,126
12,B12,104
13,B13,98
14,B14,70.6

# Biological target: T5, FcgRIIIaF (human, UniProt P08637 17-208)
# T5 construct: extracellular domain; also called FcγRIIIa F; 3aF; not shown: His tag attached to the C terminus
# Experiment: as above
# T5 sequence (P08637 17-208): as the sequence (P08637 17-208 F176V limits assumed) above, with V160F counted along it
row,Binder,fold 3aF [fold]
1,B1,153
2,B2,69
3,B3,112
4,B4,87.9
5,B5,82.9
6,B6,85.3
7,B7,138
8,B8,107
9,B9,82.9
10,B10,72.5
11,B11,121
12,B12,85.3
13,B13,107
14,B14,112

# Biological target: T1, FcgRIIaH
# Experiment: as above
row,Binder,fold 2aH [fold]
1,B1,2.6
2,B2,5.5
3,B3,2.5
4,B4,10.6
5,B5,15.3
6,B6,1.6
7,B7,2.3
8,B8,11.8
9,B9,15.8
10,B10,9.1
11,B11,6.8
12,B12,16.3
13,B13,26
14,B14,2.1

# Biological target: T2, FcgRIIb
# Experiment: as above
row,Binder,fold 2b [fold]
1,B1,0.8
2,B2,11.8
3,B3,0.5
4,B4,17.4
5,B5,20.6
6,B6,0.5
7,B7,0.6
8,B8,15
9,B9,15
10,B10,9.2
11,B11,27.5
12,B12,20.6
13,B13,36.7
14,B14,0.5

# Biological target: T3, FcgRIIaR
# Experiment: as above
row,Binder,fold 2aR [fold]
1,B1,1.3
2,B2,11.9
3,B3,0.9
4,B4,26.4
5,B5,29.6
6,B6,0.7
7,B7,1.2
8,B8,25.5
9,B9,20
10,B10,13.7
11,B11,26.4
12,B12,32.2
13,B13,52.9
14,B14,0.7
